Source: the nanobody polyreactivity screen of Harvey et al. (2022)

Test: yeast display, Sf9 membrane polyspecificity reagent, FACS + sequencing; frameworks hold sequencing errors
How it was run: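 Galactose induction of a Saccharomyces cerevisiae BJ5465 synthetic nanobody display library ran 36–48 hours. The cells were then stained for 1 hour at 4 °C with 10% biotinylated, detergent-solubilized Sf9 membrane reagent, pulled down on streptavidin microbeads and FACS-sorted into low and high (top ~1%) gates on expression and reagent-binding fluorescence. Labels for polyreactivity follow the gate of origin.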

QVQLVESGGGLVQAGGSLRLSCAASGSTFQPNAMGWYRQAPGKERELVAAITGGDNTNYADSVKGRFTISRDNAKNTVYLQMNSLKPEDTAVYYCAAGGLGSRWYVGYDYWGQGTQVTVSS
polyreactivity (PSR sort gate): low polyreactivity

QVQLVESGGGLVQAGGSLRLSCAASGSTFQPYAMGWYRQAPGKEREFVATISGSAGSTYYADSVKGRFKISRDNAKNTVYLQMNSLKPEDTAVYYCNADSGWFGYDYWGQGTQVTVSS
polyreactivity (PSR sort gate): low polyreactivity

QVQLVESGGGLVQAGGSLRLSCAASGSTFQQYAMGWYRQAPGKERELVAAISWRGGSTYYADSVKGRFTISRDNAKNTVYFQMNSLKPEDTAFYYCAARYQPGGFSRYDYYYWGQGTQVTVSS
polyreactivity (PSR sort gate): high polyreactivity

QVQLVESGGGLVQAGGSLRLSCAASGSTFQRYAMGWYRQAPGKERELVAAISDGGSTKYADYVKGRFTISRDNAKNTVYLQMNRLKPEDTAVYYCAANYLSRYDYWGQGTQVTVSS
polyreactivity (PSR sort gate): low polyreactivity

QVQLVESGGGLVQAGGSLRLSCAASGSTFQRYAMGWYRQAPGKERELVAAISSRGGSTYYADSVKGRFTISRDNAKNTVYLQMNSLKPEDTAVYYCAALGHLRYDYWGQGTQVTVSS
polyreactivity (PSR sort gate): high polyreactivity

QVQLVESGGGLVQAGGSLRLSCAASGSTFQSYAMGWSRPAPGKERELVAAISFSGGSTYYADSVKGRFTISRDHAKNTVYLQMNSLKPEDTAVYYCAADVAYVEYAYWGQGTQVTVSS
polyreactivity (PSR sort gate): low polyreactivity

QVQLVESGGGLVQAGGSLRLSCAASGSTFQTYAMGWYRQAPGKERELVASISYGVTTYYADSVKGRFTISRDNAKNTVYLQMNSLKPEDTAVYYCAREGYKWVYLSYGYWGQGTQVTVSS
polyreactivity (PSR sort gate): low polyreactivity

QVQLVESGGGLVQAGGSLRLSCAASGSTFQTYVMGWYRQAPGKERELVAAISSGGSTNYADSVKGRFTISRDNAKNTVYLQMISLKPEDTAVYYCAKRWPYFRRGKDGYWGQGTQVTVSS
polyreactivity (PSR sort gate): low polyreactivity

QVQLVESGGGLVQAGGSLRLSCAASGSTFQVNAMGWYRQAPGKERELVASISGGSSTNYADSVKGRFTISRDNAKNTVYFQMNSLKPEDTAVYYCAADYLSGLRVAYDYWGQGTQVTVSS
polyreactivity (PSR sort gate): low polyreactivity

QVQLVESGGGLVQAGGSLRLSCAASGSTFQVNAMGWYRQAPGQDRELVAAITYRTGRTYYADSVKGRCTISRDNAKNTGYLQMNSLKPEDTAVYYCAATAHSYYGVGMGYWGQGTQVTVSS
polyreactivity (PSR sort gate): high polyreactivity

QVQLVESGGGLVQAGGSLRLSCAASGSTFQVYAMGWYRQAPGKERELVAAIRYRDGNTYYADSVKGRFTISRDNAKNTVYLQMNSLKPEETAVYYCNARLYMPSGYRRSNGYESDYWGQGTQVTVSS
polyreactivity (PSR sort gate): high polyreactivity

QVQLVESGGGLVQAGGSLRLSCAASGSTFQYYPMGWYRQAPGKERELVAAISYRGSTYYADSVKGRFTISRDNAKNTVYLQMNRLKPEDTSVYYCAKGGTTWYWSGYRSIYFRYDYWGQGTQVTVSS
polyreactivity (PSR sort gate): high polyreactivity

QVQLVESGGGLVQAGGSLRLSCAASGSTFRANAMGWYRQAPGKERELVAAIRGTGSTYYADSVKGRFTISRDNAKNTVYLQMNSLKPEDTAVYYCAARPGYLYSKYNYWGQGTQVTVSS
polyreactivity (PSR sort gate): high polyreactivity

QVQLVESGGGLVQAGGSLRLSCAASGSTFRAYAMGWYRQAPGKERELVAAISSGGSTYYADSVKGRFTISRDNAKITVYLQMNCLKPEDTAVYHCAKGWYYVSPYGYRKGVYYWGQGTKVTVSS
polyreactivity (PSR sort gate): high polyreactivity

QVQLVESGGGLVQAGGSLRLSCAASGSTFRDNAMGWYRQAPGKERELVAAISRRGGNTYYADSVKGRFTISRDNAKNTVYLQMNSLKPEDTAVYYCAAEVKTSYSYTHDGYWGQGTQVTVSS
polyreactivity (PSR sort gate): high polyreactivity

QVQLVESGGGLVQAGGSLRLSCAASGSTFRDNAMGWYRQAPGKERELVAAITVIDGTTYYADSVKGRFTISRDYAKNTVYLQMNSLKPEDTAVYYCADDTIWYEYYYWGQGTQVTVSS
polyreactivity (PSR sort gate): low polyreactivity

QVQLVESGGGLVQAGGSLRLSCAASGSTFRENDMGWYRQAPGKERELVAALTFSGGSTYADSVKGRFTISRDNAKNTVYLQMNSLKPEDTAVYYCSADTLPAEFDYDYWGQGTQVTVSS
polyreactivity (PSR sort gate): low polyreactivity

QVQLVESGGGLVQAGGSLRLSCAASGSTFRFNAMGWYRQAPGKERELVAAITSTGSTYYADSVKGRFTISRDNAKNTVYLQMNSLKPEDTADYYCAATYPRYRATPRYYSWGQGTQVTVSS
polyreactivity (PSR sort gate): high polyreactivity

QVQLVESGGGLVQAGGSLRLSCAASGSTFRFNAMGWYRQAPGKERELVATISYSSDSTYYAYSVKVRFTISRDNAKNTVYLQMNSLKPEDTAVYYCAADSGYARFDYWGQGTQVTVSS
polyreactivity (PSR sort gate): high polyreactivity

QVQLVESGGGLVQAGGSLRLSCAASGSTFRFYAMGSYRQAPGKERELVASISRSGGSTYYADSVKGRFTISRDNAKNTVYLQMNSLKPEDTAVYYCAARILYHMDWGQGTQVTVSS
polyreactivity (PSR sort gate): high polyreactivity

QVQLVESGGGLVQAGGSLRLSCAASGSTFRFYAMGWYRQAPGKERELVAAINGSGGSTYYADSVKGRFTISRDIAKNSVYLQMNSLKPEDTAVYYCAVLYRYGYDYWGQGTQVTVSS
polyreactivity (PSR sort gate): low polyreactivity

QVQLVESGGGLVQAGGSLRLSCAASGSTFRFYAMGWYRQAPGKERELVAAISKSGGITYYADSVKGRFTISRDNAKNTVYLQMNSLKPEDTAVYSCATVGLLSNFYARFNYWGQGTQVTVSS
polyreactivity (PSR sort gate): high polyreactivity

QVQLVESGGGLVQAGGSLRLSCAASGSTFRFYAMGWYRQAPGKERELVAAISSRAGSTYYADSVKGRFTISRDNAKNTVYLQMNSLKPEDTAVYYCNARTYSYRGYNYWGQGTQVTVSS
polyreactivity (PSR sort gate): high polyreactivity

QVQLVESGGGLVQAGGSLRLSCAASGSTFRGNAMGWYRQAPGKERELVAAISESGTDTYYADSVKGRFTISRDNAKKTVYLLMNSLKPEDTAVYYCAKDYSGTYYAQYNYWGQGTQVTVSS
polyreactivity (PSR sort gate): low polyreactivity

QVQLVESGGGLVQAGGSLRLSCAASGSTFRGYAKGWNRQAPGKERELVAAISSRGARTHYADSVKGRFTISRDNAKNTVYLQMNSLKPEDTAVYYCAVGSPYYDGMDYWGQGTQVTVSS
polyreactivity (PSR sort gate): low polyreactivity

QVQLVESGGGLVQAGGSLRLSCAASGSTFRGYAMGRYRQAPGKERELVAAITRNGGSTYYADSVKGRFTISRDNAKNTVYLQMNSLKPEDTAVFYCAAAKRRTVGVKYTFDYWGQGTQVTVSS
polyreactivity (PSR sort gate): high polyreactivity

QVQLVESGGGLVQAGGSLRLSCAASGSTFRGYAMGWNRPAPGKETELVAGITKRGGSTYYADSVKGRFTISRDNAKNTVYLQMNSLKPEDTAVYYCAAGKHRQAYEHDYWGQGTQVTVSS
polyreactivity (PSR sort gate): high polyreactivity

QVQLVESGGGLVQAGGSLRLSCAASGSTFRGYAMGWYRHAPGKERELVAAITYISDSTYYADSVKGRFTISRDNAKNTVYLQMNSLKPEDTAVYYCIAYYDGDWRYTSQETGDHWGQGTQVTVSS
polyreactivity (PSR sort gate): low polyreactivity

QVQLVESGGGLVQAGGSLRLSCAASGSTFRGYAMGWYRQAPGKDRELVATISGSDGTTYYADSVQGRFTISRDNAKKTVYLQMNSLKPEDTAVYFCAAGETFEMYYWGQGTQVTVSS
polyreactivity (PSR sort gate): low polyreactivity

QVQLVESGGGLVQAGGSLRLSCAASGSTFRGYAMGWYRQAPGKEREFVAAISRRGGTTYYADSVKGRFTISRDNAKNTVYLQMNSLKPEDTAVYYCNKVYYQHYLAFDYWGQGTQVTVSS
polyreactivity (PSR sort gate): high polyreactivity

QVQLVESGGGLVQAGGSLRLSCAASGSTFRGYAMGWYRQAPGKEREIVAAISRRGGTTYYADSVKGRFTISRDNAKNTVYLQMNSLKPEDTAVYYCNKVYYQHYLAFDYWGQGTQVTVSS
polyreactivity (PSR sort gate): high polyreactivity

QVQLVESGGGLVQAGGSLRLSCAASGSTFRINAMGWYRQAPGKERELVADINSGGNTTYADSVKGRFTISRDNAKNTVYLQMNSLKPEDTAVYYCNAPYSFFWQQMNYWGQGTQVTVSS
polyreactivity (PSR sort gate): low polyreactivity

QVQLVESGGGLVQAGGSLRLSCAASGSTFRIYAMGWYRQAPGKERELVAAIRRRGASTYYADSVKGRFTISRDNAKNTVYLQMISLKPEDTAVYYCAASYFWDRVPGRGIHDYWGQGTQVTVSS
polyreactivity (PSR sort gate): high polyreactivity

QVQLVESGGGLVQAGGSLRLSCAASGSTFRIYAMGWYRQAPGKERELVATITSGSSTYADSVKGRFTISRDNAKNTVYLQMNSLKPEDTAVYYCAARRKGGHISYGYDYWGQGTQVTVSS
polyreactivity (PSR sort gate): high polyreactivity

QVQLVESGGGLVQAGGSLRLSCAASGSTFRKNAMGWYRQAPGKERELVASISISGGRTNYADSVKGRFTISRDNAKNTVYLQMNSLKPEDTAVYYCAAGYPWYQLPRPLEYYYWGQGTQVTVSS
polyreactivity (PSR sort gate): high polyreactivity

QVQLVESGGGLVQAGGSLRLSCAASGSTFRKYAMGWYRQAPGKERELVAAISKSGGSTYYADSVKGRFTISRDNAKNTVYLQMNSLKPEDTAVYYCNARKRTKLSYPKFDYWGQGTQVTVSS
polyreactivity (PSR sort gate): high polyreactivity

QVQLVESGGGLVQAGGSLRLSCAASGSTFRLYAMGWYRPAPGKERELVAGISRTGTSTYYADSVKGRFTISRDNAKNTVYLQMNSLKPEDTAVYYCAAVRYWSDYDYWGQGTQVTVSS
polyreactivity (PSR sort gate): high polyreactivity

QVQLVESGGGLVQAGGSLRLSCAASGSTFRLYPMGWYRQAPGKERELVAAISRSGGSTYYADSVKGRFTISRDNAKNTVYLQMNRLKPEDTAVYYCAKRRPLYAHPDDYWGQGTQVTVSS
polyreactivity (PSR sort gate): low polyreactivity

QVQLVESGGGLVQAGGSLRLSCAASGSTFRPNAMGWYRQAPGKERELVAAINRGGRTNYADSVKGRFTISRDNAKNTVYLQMISLKPEDTAVYYCAAYIAGRYGARGYDYWGQGTQVTVSS
polyreactivity (PSR sort gate): high polyreactivity

QVQLVESGGGLVQAGGSLRLSCAASGSTFRQNAMGWYRQAPGKERELVAAISSIGDSTNYADSVKGRFTISRDNAKNTVYLQMNSLKPEDTAVYYCAARTVQQRRRLYYWGQGTQVTVSS
polyreactivity (PSR sort gate): high polyreactivity

QVQLVESGGGLVQAGGSLRLSCAASGSTFRQYAMGWYRQEPGKERELVAAITWRGDNTYYADSVKGRFTISRDNAKNTVYLQMNSLKPEDTAVYYCAAEYTVYVTDWYDYYYWGQGTQVTVSS
polyreactivity (PSR sort gate): low polyreactivity

QVQLVESGGGLVQAGGSLRLSCAASGSTFRRKVMGGYRQAPGKERELVASIRSGGTTNYADSVKGRFTISRDNAKNTVYLQMNSLKPEDTAVYYCNKRLFWYRHYYYLGQGTQVTVSS
polyreactivity (PSR sort gate): high polyreactivity

QVQLVESGGGLVQAGGSLRLSCAASGSTFRRNAMGWYRQAPGKERELVAAISRRGGSTYYADSVKGRFTISRDNAKNTVYLQMNSLKPEDTAVYYCAADNTQVRPKYDYWGQGTQVTVSS
polyreactivity (PSR sort gate): high polyreactivity
